IntAct's records for PubMed 16339850

B1: E3 ubiquitin-protein ligase COP1 (Arabidopsis thaliana (Mouse-ear cress)), P43254 (parent)
chain: MEEISTDPVVPAVKPDPRTSSVGEGANRHENDDGGSGGSEIGAPDLDKDLLCPICMQIIKDAFLTACGHSFCYMCIITHLRNKSDCPCCSQHLTNNQLYPNFLLDKLLKKTSARHVSKTASPLDQFREALQRGCDVSIKEVDNLLTLLAERKRKMEQEEAERNMQILLDFLHCLRKQKVDELNEVQTDLQYIKEDINAVERHRIDLYRARDRYSVKLRMLGDDPSTRNAWPHEKNQIGFNSNSLSIRGGNFVGNYQNKKVEGKAQGSSHGLPKKDALSGSDSQSLNQSTVSMARKKRIHAQFNDLQECYLQKRRQLADQPNSKQENDKSVVRREGYSNGLADFQSVLTTFTRYSRLRVIAEIRHGDIFHSANIVSSIEFDRDDELFATAGVSRCIKVFDFSSVVNEPADMQCPIVEMSTRSKLSCLSWNKHEKNHIASSDYEGIVTVWDVTTRQSLMEYEEHEKRAWSVDFSRTEPSMLVSGSDDCKVKVWCTRQEASVINIDMKANICCVKYNPGSSNYIAVGSADHHIHYYDLRNISQPLHVFSGHKKAVSYVKFLSNNELASASTDSTLRLWDVKDNLPVRTFRGHTNEKNFVGLTVNSEYLACGSETNEVYVYHKEITRPVTSHRFGSPDMDDAEEEAGSYFISAVCWKSDSPTMLTANSQGTIKVLVLAA
partner: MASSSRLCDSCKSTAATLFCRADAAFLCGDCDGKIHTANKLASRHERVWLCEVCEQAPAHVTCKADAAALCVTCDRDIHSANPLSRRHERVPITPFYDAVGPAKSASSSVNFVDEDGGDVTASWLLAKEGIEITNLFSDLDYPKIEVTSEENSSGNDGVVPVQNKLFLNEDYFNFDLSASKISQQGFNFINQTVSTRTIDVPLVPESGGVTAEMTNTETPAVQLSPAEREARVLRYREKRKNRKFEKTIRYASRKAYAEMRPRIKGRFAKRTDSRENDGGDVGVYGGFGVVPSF
B2: Zinc finger protein CONSTANS-LIKE 3 (Arabidopsis thaliana (Mouse-ear cress)), Q9SK53 (parent)
chain: B1 partner
partner: B1 chain

Variants of: B1
Settings: with col3_arath COL3, Q9SK53

Row | Variant | effect of a mutation on the interaction
1 | G524E | disrupting interaction strength

Variants of: B2
Settings: with cop1_arath COP1, P43254

Row | Variant | effect of a mutation on the interaction
2 | V291A;P292A | disrupting interaction
